From patent US20240361320A1

Biological target: SARS-CoV-2 3CL^pro enzyme (Recombinant derived from Escherichia coli, ab277614, ABCAM; SEQ ID NO:2) (SARS-CoV-2) (UniProt P0DTC1)

## 3CL^pro specific antibody (Rabbit-derived, NBP3-07062, Novus Biologicals; binding to SEQ ID NO:3)
  time to maximal binding: 20 s
